Results taken from paper PMC5520048 (Nature Communications, 2017).

What was measured:
[1] = target: insulin detemir (Homo sapiens) (UniProt P01308); conditions: cited from earlier work
Human albumin = target: T1, Human albumin (Homo sapiens, UniProt P02768); test: Fluorescence polarization albumin binding assay, purified human albumin
T1 construct: purchased Sigma-Aldrich A1653
Protocol: Forty-five microlitre of the dilutions were added to 15 μl of fluorescent peptide (100 nM) in black 96-well half area microtitre plates. […] The final concentration of fluorescent peptide was 25 nM in all wells. Fluorescence anisotropy was measured with an Infinite M200Pro plate reader (Tecan) using an excitation filter at 485 nm and an emission filter at 535 nm. Dissociation constant (KD) were determined by nonlinear regression analysis of anisotropy versus the total concentration of proteins [P]T using the following equation: […]
A is the experimental fluorescence anisotropy. Af and Ab are the fluorescence anisotropy for the free and the fully bound fluorescent ligand, respectively. [L]T and [P]T represent the total fluorescent ligand and protein concentration, respectively. KD is the dissociation constant for the binding equilibrium. Values were calculated with Prism 5 (GraphPad software).

[2] = applied intravenously; cited from earlier work
albumin = conditions: cited from earlier work

Sequence of insulin detemir (Homo sapiens) (F8WCM5 25-53, chain 1 of 2): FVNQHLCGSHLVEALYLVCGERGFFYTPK
Sequence of insulin detemir (Homo sapiens) (P01308 90-110, chain 2 of 2): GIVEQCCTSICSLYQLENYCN

## albumin (from UniProt P02768)
[1]
  Kd: 4.2 µM

## (F)-EYEKpalmEYE [tag]
Human albumin
  improvement of Kd compared to the starting peptide-palmitoyl tag: 27 fold

## oxytocin
[2]
  half-life: 10 to 15 min

## insulin degludec
albumin
  higher affinity for albumin than insulin detemir: 2.4 fold
